According to publication PMC9961482:

Assays:
[1] = target: human ACE2-hFc fusion protein (human) (UniProt Q9BYF1); experiment: SPR
[2] = target: Encapsulin–SpyTag (Myxococcus xanthus | Streptococcus pyogenes) (UniProt Q1D6H4); experiment: SEC-MALS

Substance | kon [1] [M⁻¹ s⁻¹] | per cent reduction of binding after four weeks at 37 °C [1] [per cent] | per cent reduction of binding after two weeks at 37 °C [1] [per cent] | stoichiometry N [2]
Encapsulin–mRBD nanoparticle (from UniProt Q1D6H4;P0DTC2) (complex) | 2.58e+06 | 36 | 1 | –
Encapsulin–SpyTag (from UniProt Q1D6H4 1-287) | – | – | – | 180
